# Source: patent publication US20020151682A1 (UCB, published 2002)
# B1: mouse monoclonal antibody hTNF40 (antibody, IgG2a, V domains shown)
# VH: QIQLVQSGPELKKPGETVKISCKASGYVFTDYGMNWVKQAPGKAFKWMGWINTYIGEPIYVDDFKGRFAFSLETSASTAFLQINNLKNEDTATYFCARGYRSYAMDYWGQGTSVTVSS
# VL: DIVMTQSQKFMSTSVGDRVSVTCKASQNVGTNVAWYQQKPGQSPKALIYSASFLYSGVPYRFTGSGSGTDFTLTISTVQSEDLAEYFCQQYNIYPLTFGAGTKLELKR
# notes: The light chain constant region is kappa and the heavy chain constant region is IgG2a (mouse); also called murine hTNF40; the donor antibody
# Biological target: T1, human tumour necrosis factor alpha (TNFα) (human, UniProt P01375 77-233)
# T1 construct: also called human TNF; recombinant human TNFα
# Experiment: affinity; method not named at the sentence (BiaCore with captured hTNF40 and human TNF in flow is described at paragraph 169)
# Description: Following the injection of ligand, buffer was passed over the surface so that the dissociation could be measured.
# T1 sequence (P01375 77-233 limits assumed): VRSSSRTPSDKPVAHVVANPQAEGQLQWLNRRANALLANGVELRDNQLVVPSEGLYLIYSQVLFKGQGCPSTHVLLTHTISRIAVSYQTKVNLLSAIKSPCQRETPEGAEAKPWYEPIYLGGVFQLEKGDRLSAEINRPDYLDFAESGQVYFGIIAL
binder,measurement,value
B1,Kd,~0.085 nM
